Measured values from patent publication US20230296621A1.
Several values for one entry are separate records, joined by “and”; a condition that tells them apart may be missing. Equal values may be shown once.

Columns and labels:
[1] = molecular target: S sensors L15 + S25: S(aa 328-533)-15aa-LgBiT and S(aa 328-533)-25aa-SmBiT (SARS-CoV-2)
[2] = molecular target: N sensors LC + SC: N(aa 44-180)-10aa-LgBiT and N(aa 44-180)-10aa-SmBiT (SARS-CoV-2); assay: spLUC, antibody dilution 100
[3] = molecular target: N sensors LC2 + SC2: N(aa 44-257)-LgBiT and N(aa 44-257)-SmBiT (SARS-CoV-2); assay: spLUC, antibody dilution 100
[4] = molecular target: N sensors LN + SN: LgBiT-10aa-N(aa 44-257) and SmBiT-10aa-N(aa 44-257) (SARS-CoV-2); assay: spLUC, antibody dilution 100
[5] = molecular target: N sensors LC + SC: N(aa 44-180)-10aa-LgBiT and N(aa 44-180)-10aa-SmBiT (SARS-CoV-2); assay: spLUC, antibody dilution 10000
[6] = molecular target: N sensors LC2 + SC2: N(aa 44-257)-LgBiT and N(aa 44-257)-SmBiT (SARS-CoV-2); assay: spLUC, antibody dilution 10000
[7] = molecular target: N sensors LC + SC: N(aa 44-180)-10aa-LgBiT and N(aa 44-180)-10aa-SmBiT (SARS-CoV-2); assay: spLUC, antibody dilution 100000
[8] = molecular target: N sensors LC2 + SC2: N(aa 44-257)-LgBiT and N(aa 44-257)-SmBiT (SARS-CoV-2); assay: spLUC, antibody dilution 100000
[9] = molecular target: N sensors LN + SN: LgBiT-10aa-N(aa 44-257) and SmBiT-10aa-N(aa 44-257) (SARS-CoV-2); assay: spLUC, antibody dilution 100000
[10] = molecular target: N sensors LC + SC: N(aa 44-180)-10aa-LgBiT and N(aa 44-180)-10aa-SmBiT (SARS-CoV-2); assay: spLUC, antibody dilution 1000000
[11] = molecular target: N sensors LC2 + SC2: N(aa 44-257)-LgBiT and N(aa 44-257)-SmBiT (SARS-CoV-2); assay: spLUC, antibody dilution 1000000
[12] = molecular target: N sensors LN + SN: LgBiT-10aa-N(aa 44-257) and SmBiT-10aa-N(aa 44-257) (SARS-CoV-2); assay: spLUC, antibody dilution 1000000
[13] = molecular target: N sensors LC + SC: N(aa 44-180)-10aa-LgBiT and N(aa 44-180)-10aa-SmBiT (SARS-CoV-2); assay: spLUC, antibody dilution 1000
[14] = molecular target: N sensors LC2 + SC2: N(aa 44-257)-LgBiT and N(aa 44-257)-SmBiT (SARS-CoV-2); assay: spLUC, antibody dilution 1000
[15] = molecular target: N sensors LN + SN: LgBiT-10aa-N(aa 44-257) and SmBiT-10aa-N(aa 44-257) (SARS-CoV-2); assay: spLUC, antibody dilution 1000

| Substance | percent of signal competed [1] | luminescence signal [2] | luminescence signal [3] | luminescence signal [4] | luminescence signal [5] | luminescence signal [6] | luminescence signal [7] | luminescence signal [8] | luminescence signal [9] | luminescence signal [10] | luminescence signal [11] | luminescence signal [12] | luminescence signal [13] | luminescence signal [14] | luminescence signal [15] |
| --- | --- | --- | --- | --- | --- | --- | --- | --- | --- | --- | --- | --- | --- | --- | --- |
| C105 Fab | 90% | – | – | – | – | – | – | – | – | – | – | – | – | – | – |
| rabbit polyclonal anti-N protein antibody (Sino Biological, Cat#: 40588-T62-50) | – | 10900 and 10200 | 9060 and 9420 | 1970 and 2200 | 1030 and 694 | 563 and 505 | 811 and 592 | 475 and 327 | 146 and 145 | 598 and 600 | 332 and 281 | 138 and 104 | 4000 and 3560 | 2910 and 2790 | 677 and 684 |
